Results published in PMC10802681, “Structures of the essential efflux pump EfpA from Mycobacterium tuberculosis reveal the mechanisms of substrate transport and small-molecule inhibition” (Research Square, 2024).

How the values were obtained:
[1] = target: the molecule itself; assay: cryo-EM structure
[2] = target: the molecule itself; assay: SEC + other: negative-stain EM

B1: MtEfpA (EfpA from Mycobacterium tuberculosis), wild type, with C-terminal GFP and Strep-Tag II (natural protein)
chain: MTALNDTERAVRNWTAGRPHRPAPMRPPRSEETASERPSRYYPTWLPSRSFIAAVIAIGGMQLLATMDSTVAIVALPKIQNELSLSDAGRSWVITAYVLTFGGLMLLGGRLGDTIGRKRTFIVGVALFTISSVLCAVAWDEATLVIARLSQGVGSAIASPTGLALVATTFPKGPARNAATAVFAAMTAIGSVMGLVVGGALTEVSWRWAFLVNVPIGLVMIYLARTALRETNKERMKLDATGAILATLACTAAVFAFSIGPEKGWMSGITIGSGLVALAAAVAFVIVERTAENPVVPFHLFRDRNRLVTFSAILLAGGVMFSLTVCIGLYVQDILGYSALRAGVGFIPFVIAMGIGLGVSSQLVSRFSPRVLTIGGGYLLFGAMLYGSFFMHRGVPYFPNLVMPIVVGGIGIGMAVVPLTLSAIAGVGFDQIGPVSAIALMLQSLGGPLVLAVIQAVITSRTLYLGGTTGPVKFMNDVQLAALDHAYTYGLLWVAGAAIIVGGMALFIGYTPQQVAHAQEVKEAIDAGEL
notes: Forms an antiparallel dimer in LMNG-CHS; predominantly monomeric in DDM-CHS; No tag cleavage is described; also called MtEfpA-cGFP; MtEfpA-GFP; not shown: GFP, C-terminal, kept
B1 was tested, and the “stoichiometry N” value [1] was 2.

B2: MtEfpA T324D mutant (natural protein)
chain: MTALNDTERAVRNWTAGRPHRPAPMRPPRSEETASERPSRYYPTWLPSRSFIAAVIAIGGMQLLATMDSTVAIVALPKIQNELSLSDAGRSWVITAYVLTFGGLMLLGGRLGDTIGRKRTFIVGVALFTISSVLCAVAWDEATLVIARLSQGVGSAIASPTGLALVATTFPKGPARNAATAVFAAMTAIGSVMGLVVGGALTEVSWRWAFLVNVPIGLVMIYLARTALRETNKERMKLDATGAILATLACTAAVFAFSIGPEKGWMSGITIGSGLVALAAAVAFVIVERTAENPVVPFHLFRDRNRLVTFSAILLAGGVMFSLDVCIGLYVQDILGYSALRAGVGFIPFVIAMGIGLGVSSQLVSRFSPRVLTIGGGYLLFGAMLYGSFFMHRGVPYFPNLVMPIVVGGIGIGMAVVPLTLSAIAGVGFDQIGPVSAIALMLQSLGGPLVLAVIQAVITSRTLYLGGTTGPVKFMNDVQLAALDHAYTYGLLWVAGAAIIVGGMALFIGYTPQQVAHAQEVKEAIDAGEL
B2: binds [2].

B3: MtEfpA G377D mutant (natural protein)
chain: MTALNDTERAVRNWTAGRPHRPAPMRPPRSEETASERPSRYYPTWLPSRSFIAAVIAIGGMQLLATMDSTVAIVALPKIQNELSLSDAGRSWVITAYVLTFGGLMLLGGRLGDTIGRKRTFIVGVALFTISSVLCAVAWDEATLVIARLSQGVGSAIASPTGLALVATTFPKGPARNAATAVFAAMTAIGSVMGLVVGGALTEVSWRWAFLVNVPIGLVMIYLARTALRETNKERMKLDATGAILATLACTAAVFAFSIGPEKGWMSGITIGSGLVALAAAVAFVIVERTAENPVVPFHLFRDRNRLVTFSAILLAGGVMFSLTVCIGLYVQDILGYSALRAGVGFIPFVIAMGIGLGVSSQLVSRFSPRVLTIGGDYLLFGAMLYGSFFMHRGVPYFPNLVMPIVVGGIGIGMAVVPLTLSAIAGVGFDQIGPVSAIALMLQSLGGPLVLAVIQAVITSRTLYLGGTTGPVKFMNDVQLAALDHAYTYGLLWVAGAAIIVGGMALFIGYTPQQVAHAQEVKEAIDAGEL
B3: binds [2].

B4: MtEfpA L195D mutant (natural protein)
chain: MTALNDTERAVRNWTAGRPHRPAPMRPPRSEETASERPSRYYPTWLPSRSFIAAVIAIGGMQLLATMDSTVAIVALPKIQNELSLSDAGRSWVITAYVLTFGGLMLLGGRLGDTIGRKRTFIVGVALFTISSVLCAVAWDEATLVIARLSQGVGSAIASPTGLALVATTFPKGPARNAATAVFAAMTAIGSVMGDVVGGALTEVSWRWAFLVNVPIGLVMIYLARTALRETNKERMKLDATGAILATLACTAAVFAFSIGPEKGWMSGITIGSGLVALAAAVAFVIVERTAENPVVPFHLFRDRNRLVTFSAILLAGGVMFSLTVCIGLYVQDILGYSALRAGVGFIPFVIAMGIGLGVSSQLVSRFSPRVLTIGGGYLLFGAMLYGSFFMHRGVPYFPNLVMPIVVGGIGIGMAVVPLTLSAIAGVGFDQIGPVSAIALMLQSLGGPLVLAVIQAVITSRTLYLGGTTGPVKFMNDVQLAALDHAYTYGLLWVAGAAIIVGGMALFIGYTPQQVAHAQEVKEAIDAGEL
B4: binds [2].

B5: MtEfpA G502D mutant (natural protein)
chain: MTALNDTERAVRNWTAGRPHRPAPMRPPRSEETASERPSRYYPTWLPSRSFIAAVIAIGGMQLLATMDSTVAIVALPKIQNELSLSDAGRSWVITAYVLTFGGLMLLGGRLGDTIGRKRTFIVGVALFTISSVLCAVAWDEATLVIARLSQGVGSAIASPTGLALVATTFPKGPARNAATAVFAAMTAIGSVMGLVVGGALTEVSWRWAFLVNVPIGLVMIYLARTALRETNKERMKLDATGAILATLACTAAVFAFSIGPEKGWMSGITIGSGLVALAAAVAFVIVERTAENPVVPFHLFRDRNRLVTFSAILLAGGVMFSLTVCIGLYVQDILGYSALRAGVGFIPFVIAMGIGLGVSSQLVSRFSPRVLTIGGGYLLFGAMLYGSFFMHRGVPYFPNLVMPIVVGGIGIGMAVVPLTLSAIAGVGFDQIGPVSAIALMLQSLGGPLVLAVIQAVITSRTLYLGGTTGPVKFMNDVQLAALDHAYTYGLLWVAGAAIIVDGMALFIGYTPQQVAHAQEVKEAIDAGEL
B5: binds [2].
